According to the Human Domainome abundance scans (Beltran et al. 2025):
± gives the uncertainty stated by the source.

B1: Bromodomain adjacent to zinc finger domain protein 2B, residues 1927 to 1982; numbered along this chain, Q9UIF8 (parent)
chain: KSIMKVYCQICRKGDNEELLLLCDGCDKGCHTYCHRPKITTIPDGDWFCPACIAKA

Variants of: B1
Test: abundance fitness (aPCA) (normalised: wild type 0, dead -1); higher = more abundant; growth selection in yeast, the domain comes from the species named
Conditions: Homo sapiens

Variant	abundance fitness
KSIGKVYCQICRKGDNEELLLLCDGCDKGCHTYCHRPKITTIPDGDWFCPACIAKA [M4G]	-0.325 ± 0.071
KSIHKVYCQICRKGDNEELLLLCDGCDKGCHTYCHRPKITTIPDGDWFCPACIAKA [M4H]	-0.009 ± 0.22
KSIIKVYCQICRKGDNEELLLLCDGCDKGCHTYCHRPKITTIPDGDWFCPACIAKA [M4I]	-0.068 ± 0.12
KSIKKVYCQICRKGDNEELLLLCDGCDKGCHTYCHRPKITTIPDGDWFCPACIAKA [M4K]	-0.127 ± 0.17
KSILKVYCQICRKGDNEELLLLCDGCDKGCHTYCHRPKITTIPDGDWFCPACIAKA [M4L]	-0.145 ± 0.082
KSINKVYCQICRKGDNEELLLLCDGCDKGCHTYCHRPKITTIPDGDWFCPACIAKA [M4N]	-0.169 ± 0.16
KSIPKVYCQICRKGDNEELLLLCDGCDKGCHTYCHRPKITTIPDGDWFCPACIAKA [M4P]	-0.183 ± 0.13
KSIQKVYCQICRKGDNEELLLLCDGCDKGCHTYCHRPKITTIPDGDWFCPACIAKA [M4Q]	-0.065 ± 0.12
KSIRKVYCQICRKGDNEELLLLCDGCDKGCHTYCHRPKITTIPDGDWFCPACIAKA [M4R]	-0.157 ± 0.08
KSISKVYCQICRKGDNEELLLLCDGCDKGCHTYCHRPKITTIPDGDWFCPACIAKA [M4S]	-0.161 ± 0.091
KSITKVYCQICRKGDNEELLLLCDGCDKGCHTYCHRPKITTIPDGDWFCPACIAKA [M4T]	-0.06 ± 0.11
KSIVKVYCQICRKGDNEELLLLCDGCDKGCHTYCHRPKITTIPDGDWFCPACIAKA [M4V]	-0.138 ± 0.081
KSIMAVYCQICRKGDNEELLLLCDGCDKGCHTYCHRPKITTIPDGDWFCPACIAKA [K5A]	-0.158 ± 0.094
KSIMCVYCQICRKGDNEELLLLCDGCDKGCHTYCHRPKITTIPDGDWFCPACIAKA [K5C]	-0.125 ± 0.13
KSIMDVYCQICRKGDNEELLLLCDGCDKGCHTYCHRPKITTIPDGDWFCPACIAKA [K5D]	-0.162 ± 0.13
KSIMEVYCQICRKGDNEELLLLCDGCDKGCHTYCHRPKITTIPDGDWFCPACIAKA [K5E]	-0.156 ± 0.12
KSIMFVYCQICRKGDNEELLLLCDGCDKGCHTYCHRPKITTIPDGDWFCPACIAKA [K5F]	-0.444 ± 0.15
KSIMGVYCQICRKGDNEELLLLCDGCDKGCHTYCHRPKITTIPDGDWFCPACIAKA [K5G]	-0.077 ± 0.079
KSIMIVYCQICRKGDNEELLLLCDGCDKGCHTYCHRPKITTIPDGDWFCPACIAKA [K5I]	-0.334 ± 0.17
KSIMLVYCQICRKGDNEELLLLCDGCDKGCHTYCHRPKITTIPDGDWFCPACIAKA [K5L]	-0.202 ± 0.08
KSIMMVYCQICRKGDNEELLLLCDGCDKGCHTYCHRPKITTIPDGDWFCPACIAKA [K5M]	-0.083 ± 0.13
KSIMNVYCQICRKGDNEELLLLCDGCDKGCHTYCHRPKITTIPDGDWFCPACIAKA [K5N]	-0.035 ± 0.16
KSIMPVYCQICRKGDNEELLLLCDGCDKGCHTYCHRPKITTIPDGDWFCPACIAKA [K5P]	-0.198 ± 0.1
KSIMQVYCQICRKGDNEELLLLCDGCDKGCHTYCHRPKITTIPDGDWFCPACIAKA [K5Q]	-0.113 ± 0.099

Variant	abundance fitness
KSIMRVYCQICRKGDNEELLLLCDGCDKGCHTYCHRPKITTIPDGDWFCPACIAKA [K5R]	-0.095 ± 0.084
KSIMSVYCQICRKGDNEELLLLCDGCDKGCHTYCHRPKITTIPDGDWFCPACIAKA [K5S]	-0.019 ± 0.091
KSIMTVYCQICRKGDNEELLLLCDGCDKGCHTYCHRPKITTIPDGDWFCPACIAKA [K5T]	-0.056 ± 0.089
KSIMVVYCQICRKGDNEELLLLCDGCDKGCHTYCHRPKITTIPDGDWFCPACIAKA [K5V]	-0.176 ± 0.078
KSIMWVYCQICRKGDNEELLLLCDGCDKGCHTYCHRPKITTIPDGDWFCPACIAKA [K5W]	-0.303 ± 0.11
KSIMKAYCQICRKGDNEELLLLCDGCDKGCHTYCHRPKITTIPDGDWFCPACIAKA [V6A]	-0.132 ± 0.1
KSIMKCYCQICRKGDNEELLLLCDGCDKGCHTYCHRPKITTIPDGDWFCPACIAKA [V6C]	-0.208 ± 0.13
KSIMKDYCQICRKGDNEELLLLCDGCDKGCHTYCHRPKITTIPDGDWFCPACIAKA [V6D]	-0.007 ± 0.21
KSIMKEYCQICRKGDNEELLLLCDGCDKGCHTYCHRPKITTIPDGDWFCPACIAKA [V6E]	-0.092 ± 0.12
KSIMKFYCQICRKGDNEELLLLCDGCDKGCHTYCHRPKITTIPDGDWFCPACIAKA [V6F]	0.064 ± 0.2
KSIMKGYCQICRKGDNEELLLLCDGCDKGCHTYCHRPKITTIPDGDWFCPACIAKA [V6G]	-0.045 ± 0.072
KSIMKHYCQICRKGDNEELLLLCDGCDKGCHTYCHRPKITTIPDGDWFCPACIAKA [V6H]	-0.036 ± 0.2
KSIMKIYCQICRKGDNEELLLLCDGCDKGCHTYCHRPKITTIPDGDWFCPACIAKA [V6I]	-0.068 ± 0.13
KSIMKKYCQICRKGDNEELLLLCDGCDKGCHTYCHRPKITTIPDGDWFCPACIAKA [V6K]	0.117 ± 0.16
KSIMKLYCQICRKGDNEELLLLCDGCDKGCHTYCHRPKITTIPDGDWFCPACIAKA [V6L]	-0.076 ± 0.077
KSIMKMYCQICRKGDNEELLLLCDGCDKGCHTYCHRPKITTIPDGDWFCPACIAKA [V6M]	-0.064 ± 0.11
KSIMKNYCQICRKGDNEELLLLCDGCDKGCHTYCHRPKITTIPDGDWFCPACIAKA [V6N]	-0.124 ± 0.27
KSIMKPYCQICRKGDNEELLLLCDGCDKGCHTYCHRPKITTIPDGDWFCPACIAKA [V6P]	-0.143 ± 0.11
KSIMKQYCQICRKGDNEELLLLCDGCDKGCHTYCHRPKITTIPDGDWFCPACIAKA [V6Q]	-0.043 ± 0.11
KSIMKRYCQICRKGDNEELLLLCDGCDKGCHTYCHRPKITTIPDGDWFCPACIAKA [V6R]	0.036 ± 0.064
KSIMKSYCQICRKGDNEELLLLCDGCDKGCHTYCHRPKITTIPDGDWFCPACIAKA [V6S]	0.014 ± 0.092
KSIMKTYCQICRKGDNEELLLLCDGCDKGCHTYCHRPKITTIPDGDWFCPACIAKA [V6T]	-0.028 ± 0.098
KSIMKYYCQICRKGDNEELLLLCDGCDKGCHTYCHRPKITTIPDGDWFCPACIAKA [V6Y]	0.171 ± 0.2
